This note sets out measurements from paper PMC10250220.

In data set [1] the target is Flag-tagged CTC1 ΔB (human) (UniProt Q2NKJ3). As to the kind of experiment: co-IP.
The target in the next data set is CTC1 V259M;STN1;TEN1 (human?;human?;human?, UniProt Q2NKJ3;Q9H668;Q86WV5 1-1217;1-368;1-123, V259M||). As to the kind of experiment: EMSA.
For the next data set, the target named is CTC1 A227V;STN1;TEN1 (human?;human?;human?, UniProt Q2NKJ3;Q9H668;Q86WV5 1-1217;1-368;1-123, A227V||). Briefly: EMSA. For orientation: Mobility shift assays separate free from complexed probe on a gel.
Sequence of CTC1 A227V;STN1;TEN1 (Q2NKJ3 whole entry A227V, chain 1 of 3): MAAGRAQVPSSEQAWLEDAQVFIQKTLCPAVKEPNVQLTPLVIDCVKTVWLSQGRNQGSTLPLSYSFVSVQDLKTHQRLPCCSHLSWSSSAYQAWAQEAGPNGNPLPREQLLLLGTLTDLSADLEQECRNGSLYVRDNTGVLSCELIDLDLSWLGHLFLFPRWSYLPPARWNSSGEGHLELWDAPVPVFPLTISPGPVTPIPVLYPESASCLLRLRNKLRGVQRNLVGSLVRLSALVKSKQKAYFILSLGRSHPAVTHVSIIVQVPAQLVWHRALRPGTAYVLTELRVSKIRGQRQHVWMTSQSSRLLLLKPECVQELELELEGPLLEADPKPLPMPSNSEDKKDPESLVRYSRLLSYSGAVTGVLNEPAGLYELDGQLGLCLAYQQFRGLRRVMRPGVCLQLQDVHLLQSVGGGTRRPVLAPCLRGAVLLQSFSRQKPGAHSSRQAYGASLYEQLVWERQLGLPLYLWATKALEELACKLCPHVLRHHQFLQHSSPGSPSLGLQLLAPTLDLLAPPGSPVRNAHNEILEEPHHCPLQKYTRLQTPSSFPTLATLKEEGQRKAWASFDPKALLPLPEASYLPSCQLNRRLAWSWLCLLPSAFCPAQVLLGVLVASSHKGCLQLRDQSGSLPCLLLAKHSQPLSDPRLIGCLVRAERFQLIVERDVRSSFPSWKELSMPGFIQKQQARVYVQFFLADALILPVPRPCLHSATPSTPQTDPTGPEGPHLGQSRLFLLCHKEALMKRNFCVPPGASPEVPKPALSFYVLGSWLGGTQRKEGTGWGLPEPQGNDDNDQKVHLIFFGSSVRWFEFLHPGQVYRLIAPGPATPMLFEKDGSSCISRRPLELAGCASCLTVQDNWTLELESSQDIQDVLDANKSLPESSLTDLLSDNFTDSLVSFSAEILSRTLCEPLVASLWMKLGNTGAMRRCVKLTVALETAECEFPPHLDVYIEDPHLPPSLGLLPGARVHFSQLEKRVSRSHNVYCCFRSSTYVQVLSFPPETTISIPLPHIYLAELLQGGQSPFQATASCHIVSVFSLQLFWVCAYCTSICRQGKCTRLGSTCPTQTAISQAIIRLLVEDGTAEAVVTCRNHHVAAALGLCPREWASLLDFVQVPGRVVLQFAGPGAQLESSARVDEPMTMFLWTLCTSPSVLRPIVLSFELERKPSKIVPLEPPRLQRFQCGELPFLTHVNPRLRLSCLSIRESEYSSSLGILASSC
Sequence of CTC1 A227V;STN1;TEN1 (Q9H668 whole entry, chain 2 of 3): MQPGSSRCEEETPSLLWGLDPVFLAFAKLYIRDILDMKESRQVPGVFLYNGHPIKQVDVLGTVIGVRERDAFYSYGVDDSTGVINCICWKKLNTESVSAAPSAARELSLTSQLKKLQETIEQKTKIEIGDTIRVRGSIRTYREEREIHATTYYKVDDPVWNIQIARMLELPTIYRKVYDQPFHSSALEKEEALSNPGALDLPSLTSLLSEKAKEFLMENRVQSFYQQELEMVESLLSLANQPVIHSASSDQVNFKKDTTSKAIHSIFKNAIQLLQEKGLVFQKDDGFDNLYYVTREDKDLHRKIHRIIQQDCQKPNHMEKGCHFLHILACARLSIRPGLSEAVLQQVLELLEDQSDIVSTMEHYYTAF
Sequence of CTC1 A227V;STN1;TEN1 (Q86WV5 whole entry, chain 3 of 3): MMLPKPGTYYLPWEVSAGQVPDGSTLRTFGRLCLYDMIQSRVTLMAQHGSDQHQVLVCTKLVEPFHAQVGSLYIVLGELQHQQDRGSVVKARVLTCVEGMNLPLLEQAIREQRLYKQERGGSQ

Sequence of Flag-tagged CTC1 ΔB (human) (Q2NKJ3 whole entry, stated change not applied): as the sequence (Q2NKJ3 whole entry A227V, chain 1 of 3) above, with V227A counted along it
Sequence of CTC1 V259M;STN1;TEN1 (Q2NKJ3 whole entry V259M, chain 1 of 3): as the sequence (Q2NKJ3 whole entry A227V, chain 1 of 3) above, with V227A, V259M counted along it
Sequence of CTC1 V259M;STN1;TEN1 (Q9H668 whole entry, chain 2 of 3): as the sequence (Q9H668 whole entry, chain 2 of 3) above
Sequence of CTC1 V259M;STN1;TEN1 (Q86WV5 whole entry, chain 3 of 3): as the sequence (Q86WV5 whole entry, chain 3 of 3) above

“Myc-tagged TPP1 (from UniProt Q96AP0 1-458) (natural protein)”: the percent decrease of TPP1 co-immunoprecipitated, against WT CTC1 in data set [1] was found to be 44%.

B1: Tel-18 CY7 (ssDNA)
DNA: GGTTAGGGTTAGGGTTAG
B1: the binding result with CTC1 V259M;STN1;TEN1 and in the data set with CTC1 A227V;STN1;TEN1 was “binds” each time.
